# US7838495B2, “Compositions and methods of use of EPB1, and ErbB3 binding protein” (University of Maryland, Baltimore, priority 2007, dated 2010)
# “Also recorded” adds a separate entry of the source.
# B1: EBP1: ErbB3 binding protein (SEQ ID NO: 2), AR corepressor, here ectopically expressed in cancer cells by stable transfection of an expression plasmid (protein, listed as Homo sapiens)
# chain: MSGEDEQQEQTIAEDLVVTKYKMGGDIANRVLRSLVEASSSGVSVLSLCEKGDAMIMEETGKIFKKEKEMKKGIAFPTSISVNNCVCHFSPLKSDQDYILKEGDLVKIDLGVHVDGFIANVAHTFVVDVAQGTQVTGRKADVIKAAHLCAEAALRLVKPGNQNTQVTEAWNKVAHSFNCTPIEGMLSHQLKQHVIDGEKTIIQNPTDQQKKDHEKAEFEVHEVYAVDVLVSSGEGKAKDAGQRTTIYKRDPSKQYGLKMKTSRAFFSEVERRFDAMPFTLRAFEDEKKARMGVVECAKHELLQPFNVLYEKEGEFVAQFKFTVLLMPNGPMRITSGPFEPDLYKSEMEVQDAELKALLQSSASRKTQKKKKKKASKTAENATSGETLEENEAGD
# modifications: FLAG tag
# What was measured:
# C81 cells [1] = assay: Sensitivity of C81 transfectants to 4 Gy gamma radiation; format: cell-based, human; details: C81 EPB1 transfectants, 72 h after exposure (vector less than 10%)
# Source text: Restoration or increase of EPB1 expression can sensitize the androgen independent prostate cancer C81 cells to radiation. Radiotherapy is another important treatment for locally and regionally advanced prostate cancer. However, resistance of prostate cancer cells to radiation limits its efficacy and dose escalation is obviously not the solution to this common phenomenon. Bcl-2 overexpression may be the same critical molecule underlying the resistance to radiotherapy as to the chemotherapy in prostate cancer. 4 Gy gamma radiation killed 100% of EPB1 transfectants while less than 10% of C81 vector transfectants were dead in 72 h after exposure to the same 4 Gy gamma irradiation. […] Without being bound by theory, it is contemplated that the increase in sensitivity to radiation might be due to the decreased levels of Bcl-2 in EPB1 transfectants given the importance of Bcl-2 function in resistance to radiation.
# C81 cells [2] = assay: Growth of C81 EBP1 transfectants (monolayer, soft agar, androgen-depleted media); format: cell-based, human
# Procedure: FIG. 4A-C. EBP1 restoration ameliorates the hormone refractory phenotype A. (Left panel) Growth in monolayer culture. Equal numbers (5×10^4) of vector or EBP1 stably transfected cells were plated at Day 0 in complete media and viable cell numbers determined at the indicated times. Each point represents mean±S.E. of 3 wells. Representative of 3 experiments (Right panel). Colony growth in soft agar. C81 cells stably transfected with either pcDNA or EBP1 were plated in soft agar at the cell densities indicated and colony numbers assessed at Day 10. Each point represents mean±S.E. of 3 dishes. Data is representative of 3 experiments. B. (Left Panel) Response of EBP1 and vector transfected C81 cells to dihydrotestosterone (DHT). EBP1 and vector control C81 transfected cells and early passage LNCaP cells were plated in complete media at 5×10^3 cells/well in 96 well plates for one day. The next day, cells were switched to steroid reduced medium for two days as described in the Materials and Methods. DHT was then added at the indicated concentrations. Cells were refed media every 3 days. Total cell numbers were determined seven days later by MTT assays. Each point represents mean±S.E. of 6 wells. Data is representative of two experiments. (Right Panel) Effect of Bicalutamide on DHT stimulated growth. Cells were plated as described in the Materials and Methods. After 2 days in steroid reduced medium, cells were fed with fresh steroid reduced medium with or without 10 μM bicalutamide (Casodex) in the presence or absence of 10 nM DHT. Total cell numbers were assessed 7 days later by MTT assay. Cells were refed media every 3 days. The data shown are mean±S.E. of six wells. Similar results were found in 2 independent experiments. C. EBP1 expression sensitizes C81 cells to chemotherapeutic drugs. […] Total cell numbers were determined by MTT assays 5 days later. […]
# Western Blot Analysis. […] For soft agar growth assays, increasing concentrations of cells (as indicated) were plated in 35 mm Petri dishes in 0.3% agar in complete media and colonies were counted after 10 days of incubation (21). […]
molecule,measurement,setting,value
B1,cells killed by 4 Gy gamma radiation,C81 cells [1],100%
same,decrease of colony growth in soft agar,"C81 cells [2]; C81, highest cell concentration tested",approximately 50%
same,growth rate in complete media,"C81 cells [2]; C81 EBP1 transfectants vs vector control, p<0.05",significantly decreased
same,growth in the absence of androgens relative to vector controls,"C81 cells [2]; C81 EBP1 transfectants, androgen depleted media",reduced to one third; also recorded: reduced by ⅔
